Assay results: patent publication US20150307603A1 (MODIQUEST B V, published 2015)
Non-standard residues stand in square brackets, D forms with d. No end group written: not given here. Cit = NC(=O)NCCC[C@H](N)C(=O)O

Assays:
[1] = target: T1, CFC-1; experiment: ELISA, Ab 2 ug/well
T1 construct: Positive control for anti-citrulline reactivity; also called cfc1 XG; Cfc1-peptide
Procedure: (§1) Biotin and citrulline-containing peptides derived from fibrinogen and vimentin were immobilized on NEUTRAVIDIN®-coated 96-well ELISA plates (0.3 μg/well). CFC-1 and CFC-0 were coated at the same concentration and served as positive and negative controls, respectively, for specific anti-citrulline reactivity and as coating controls. Non-coated wells were used to test for aspecific binding of the antibodies. […] Detection of bound anti-citrulline antibodies was performed by incubating the wells with rabbit anti-human HRP (1:2000) for 1 hour at RT followed by incubation with TMB substrate. The resulting OD (y-axis) is a measure for antibody binding.
(§2) Biotin-labeled and citrulline-containing fibrinogen and vimentin peptides (Table 5) were also tested for reactivity with the therapeutic antibodies. Peptides were coated on 96-well NEUTRAVIDIN®-ELISA plates.

[2] = target: T2, msFibα XG (mouse, X at position 8 = citrulline; biotin-labelled); experiment: ELISA, Ab 2 ug/well
T2 peptide: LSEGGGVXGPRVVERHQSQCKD
Procedure: as §1, §2

[3] = target: T3, msFibβ XG (mouse, also: biotin-labelled); experiment: ELISA, Ab 2 ug/well
T3 construct: also called mouse fibrinogen β peptide
T3 peptide: EPTDSLDA[Cit]GHRPVDRR
Procedure: as §1, §2

[4] = target: T4, human recombinant histone 2A (human); experiment: ELISA, Ab 0.4 ug/well
T4 construct: Non-deiminated; also called H2A
Description: (§3) The resulting OD (y-axis) is a measure for antibody binding. H1-recombinant histone 1; H1/p2-huPAD2 recombinant histone 1; H1/p4-huPAD4 recombinant histone 1, and so forth (x-axis).

[5] = target: T5, huPAD4-deiminated human recombinant histone 2A (human); experiment: ELISA, Ab 0.4 ug/well
T5 construct: also called H2A/p4; histone 2A/p4
Description: as §3

[6] = target: T6, huPAD4-deiminated human recombinant histone 2B (human); experiment: ELISA, Ab 0.4 ug/well
T6 construct: also called H2B/p4
Description: as §3

[7] = target: T7, human recombinant histone 3 (human); experiment: ELISA, Ab 0.4 ug/well
T7 construct: Non-deiminated; also called H3
Description: as §3

[8] = target: T8, huPAD4-deiminated human recombinant histone 3 (human); experiment: ELISA, Ab 0.4 ug/well
T8 construct: also called H3/p4
Description: as §3

[9] = target: human recombinant histone 4 (human, UniProt P62805 2-103); experiment: ELISA, Ab 0.4 ug/well
Description: as §3

[10] = target: T1, CFC-1; experiment: ELISA, Ab 0.4 ug/well
Description: as §3

[11] = target: T1, CFC-1; experiment: ELISA, Ab 0.0032 ug/well
Procedure: as §1, with “histone 2A” for “fibrinogen and vimentin”

[12] = target: T9, peptide no. 1 (human histone 2A) (human, also: biotin-labelled); experiment: ELISA, Ab 0.0032 ug/well
T9 construct: also called peptide 1; AAASGXGKQGGK
T9 peptide: AAASG[Cit]GKQGGK
Procedure: as §1, with “histone 2A” for “fibrinogen and vimentin”

[13] = target: T10, peptide no. 4 (human histone 2A) (human, also: biotin-labelled); experiment: ELISA, Ab 0.0032 ug/well
T10 construct: also called peptide 4
T10 peptide: QFPVG[Cit]VHRLLR
Procedure: as §1, with “histone 2A” for “fibrinogen and vimentin”

[14] = target: T11, peptide no. 5 (human histone 2A) (human, also: biotin-labelled); experiment: ELISA, Ab 0.0032 ug/well
T11 construct: also called peptide 5
T11 peptide: VGRVH[Cit]LLRKGN
Procedure: as §1, with “histone 2A” for “fibrinogen and vimentin”

[15] = target: T12, peptide no. 7 (human histone 2A) (human, also: biotin-labelled); experiment: ELISA, Ab 0.0032 ug/well
T12 construct: also called peptide 7
T12 peptide: GNYSE[Cit]VGAGAP
Procedure: as §1, with “histone 2A” for “fibrinogen and vimentin”

[16] = target: T13, peptide no. 8 (human histone 2A) (human, also: biotin-labelled); experiment: ELISA, Ab 0.0032 ug/well
T13 construct: also called peptide 8
T13 peptide: AGNAA[Cit]DNKKTR
Procedure: as §1, with “histone 2A” for “fibrinogen and vimentin”

[17] = target: T14, peptide no. 10 (human histone 2A) (human, also: biotin-labelled); experiment: ELISA, Ab 0.0032 ug/well
T14 construct: also called peptide 10
T14 peptide: TRIIP[Cit]HLQLAI
Procedure: as §1, with “histone 2A” for “fibrinogen and vimentin”

[18] = target: T15, peptide no. 11 (human histone 2A) (human, also: biotin-labelled); experiment: ELISA, Ab 0.0032 ug/well
T15 construct: also called peptide 11
T15 peptide: LQLAI[Cit]NDEELN
Procedure: as §1, with “histone 2A” for “fibrinogen and vimentin”

[19] = target: T16, peptide no. 12 (human histone 2A) (human, also: biotin-labelled); experiment: ELISA, Ab 0.0032 ug/well
T16 construct: also called peptide 12
T16 peptide: NKLLG[Cit]VTIAQG
Procedure: as §1, with “histone 2A” for “fibrinogen and vimentin”

[20] = target: T1, CFC-1; experiment: ELISA, Ab 0.00064 ug/well
Procedure: as §1, with “histone 2A” for “fibrinogen and vimentin”

[21] = target: T9, peptide no. 1 (human histone 2A); experiment: ELISA, Ab 0.00064 ug/well
Procedure: as §1, with “histone 2A” for “fibrinogen and vimentin”

[22] = target: T17, peptide no. 2 (human histone 2A) (human, also: biotin-labelled); experiment: ELISA, Ab 0.00064 ug/well
T17 construct: also called peptide 2
T17 peptide: AKAKS[Cit]SSRAGL
Procedure: as §1, with “histone 2A” for “fibrinogen and vimentin”

[23] = target: T10, peptide no. 4 (human histone 2A); experiment: ELISA, Ab 0.00064 ug/well
Procedure: as §1, with “histone 2A” for “fibrinogen and vimentin”

[24] = target: T11, peptide no. 5 (human histone 2A); experiment: ELISA, Ab 0.00064 ug/well
Procedure: as §1, with “histone 2A” for “fibrinogen and vimentin”

[25] = target: T12, peptide no. 7 (human histone 2A); experiment: ELISA, Ab 0.00064 ug/well
Procedure: as §1, with “histone 2A” for “fibrinogen and vimentin”

[26] = target: T13, peptide no. 8 (human histone 2A); experiment: ELISA, Ab 0.00064 ug/well
Procedure: as §1, with “histone 2A” for “fibrinogen and vimentin”

[27] = target: T18, peptide no. 9 (human histone 2A) (human, also: biotin-labelled); experiment: ELISA, Ab 0.00064 ug/well
T18 construct: also called peptide 9
T18 peptide: DNKKT[Cit]IIPRHL
Procedure: as §1, with “histone 2A” for “fibrinogen and vimentin”

[28] = target: T15, peptide no. 11 (human histone 2A); experiment: ELISA, Ab 0.00064 ug/well
Procedure: as §1, with “histone 2A” for “fibrinogen and vimentin”

B1: RhmAb2.102 (antibody, human IgG1, lambda)
heavy: not shown
light: QSVLTQPPSMSAAPGQKVTISCSGSSSNIGNNYVSWYQQVPGTAPKLLIYDDNKRPSGIPGRFSGSKSATSATLGITGLQAGDEADYYCGSWDDNLSVVLFGGGTKLTVLGQPKAAPSVTLFPPSSEELQANKATLVCLISDFYPGAVTVAWKADSSPVKAGVETTTPSKQSNNKYAASSYLSLTPEQWKSHRSYSCQVTHEGSTVEKTVAPTECS
notes: Human IgG1 lambda; also called Rhm2.102
OD [1]: 3.97 OD450
OD [2]: 1.9 OD450
OD [3]: 3.15 OD450
OD [4]: 0.071 OD450
OD [5]: 2.72 OD450
OD [6]: 0.054 OD450
OD [7]: 0.08 OD450
OD [8]: 0.166 OD450
OD [9]: 0.091 OD450
OD [10]: 3.12 OD450
OD [11]: 0.916 OD450
OD [12]: 0.3 OD450
OD [13]: 0.078 OD450
OD [14]: 0.063 OD450
OD [15]: 0.064 OD450
OD [16]: 0.06 OD450
OD [17]: 0.068 OD450
OD [18]: 0.057 OD450
OD [19]: 0.059 OD450
OD [20]: 0.621 OD450
OD [21]: 0.16 OD450
OD [22]: 0.055 OD450
OD [23]: 0.063 OD450
OD [24]: 0.067 OD450
OD [25]: 0.057 OD450
OD [26]: 0.057 OD450
OD [27]: 0.059 OD450
OD [28]: 0.06 OD450
